The source of these data is patent publication US20120263739A1, “ANTI INTEGRIN ANTIBODIES LINKED TO NANOPARTICLES LOADED WITH CHEMOTHERAPEUTIC AGENTS” (MERCK PATENT GMBH, priority 2009, published 2012).

Data set [1] can be described thus: Antibody bound to nanoparticle surface (SEC of supernatant). In kind it is physicochemical. How it is done: For the thiolation step of the antibodies, DI17E6 or IgG were dissolved in phosphate buffer pH 8.0 at a concentration of 1.0 mg/ml. For the introduction of thiol groups DI17E6 or IgG, respectively, were incubated with a 50 fold molar excess of 2-iminothiolane solution (c=1.14 mg/ml; 40.2 μl) for 2 h as previously described by Steinhauser et al. (2006). The antibodies were purified by size exclusion chromatography (SEC, D-Salt™ Dextran Desalting column). The resulting solutions contained thiolated antibody (DI17E6 or IgG, respectively) at a concentration of about 500 μg/ml. For the coupling reaction 1.0 ml of the sulfhydryl-reactive nanoparticle suspension was incubated with 1.0 ml of the thiolated DI17E6 or IgG, respectively, to achieve a covalent linkage between antibody and the nanoparticle system. For the preparation of samples with adsorptively attached antibody, 1.0 ml of the mPEG5000-SPA modified nanoparticles were incubated with 1.0 ml of thiolated DI17E6 or IgG, respectively. […] To determine unbound antibody the resulting supernatants were collected and analyzed by size exclusion chromatography (SEC) as described above. The amount of antibody bound to the nanoparticle surface was calculated as difference between the amount of antibody obtained after thiolation and purification and the amount of antibody determined in the supernatant obtained after the conjugation step.

Data set [2] can be described thus: Doxorubicin loading (HPLC of non-entrapped drug). Format: physicochemical. The conditions noted are these: mean ± SD, n = 3. As to the method:
(5) Preparation of doxorubicin-loaded nanoparticles 160 mg HSA were dissolved in 4 ml purified water and the solution was filtered through a 0.22 μm cellulose acetate membrane filter (Schleicher & Schuell, Dassel, Germany). An aliquot (500 μl) of this solution was added to 200 μl of a 0.5% (w/v) aqueous stock solution of doxorubicin. To this mixture, 300 μl of purified water were added. In order to adsorb doxorubicin to human serum albumin in solution, the mixture was incubated under stirring (550 rpm) for 2 h at room temperature. For the preparation of nanoparticles by desolvation, 3 ml ethanol (96%, v/v) were added continuously (1 ml/min) with a tubing pump (Ismatec IPN, Glattbrugg, Switzerland). After protein desolvation, an aliquot of 11.75 μl 8% glutaraldehyde solution was added to induce particle crosslinking (corresponding to 100% stoichiometric protein crosslinking). […] The nanoparticle content was determined by gravimetry. […] The content of entrapped doxorubicin was calculated from the difference between total doxorubicin and unbound drug. For the quantification of doxorubicin, a Merck Hitachi D7000 HPLC system equipped with a LiChroCART® 250-4 LiChrospher®-100 RP-18 column (Merck, Darmstadt, Germany) was used. […] Doxorubicin was quantified by UV (250 nm) and fluorescence detection (excitation 560 nm, emission 650 nm).

The subject of a further data set is αv-negative M21L cells. In words: MTT cell viability assay. The conditions noted are these: MTT, reduce cell viability by 50%, M21L cells. (In general: Tetrazolium assays rely on reduction of a dye to a coloured formazan, in cell work by metabolically active cells.)

Description for αv-negative M21L cells: Cell viability was assessed using the 3-(4,5-dimethylthiazol-2-yl)-2,5-diphenyltetrazolium bromide (MTT) dye reduction assay [27] modified as described before [28].

As for NP-Dox-DI17E6, the “Covalent linkage of antibody to the particle surface” value in data set [1] (covalent linkage) is 11-20 μg antibody/mg nanoparticle. The substance further gave an Antibody binding efficiency in data set [1] (mean ± SD, n = 3, antibody per mg nanoparticle) of 15.84 ± 4.07 µg/mg. The Drug loading in data set [2] is 56.7 ± 2.9 µg/mg. Moreover, the “IC-50 M21L” value in the data set on αv-negative M21L cells was over 100 ng/mL.
